Assay [1] has as its target T1, Recombinant protein HER3-ECD-Fc (RnD Systems) (human, UniProt P21860 20-643).
T1 construct: extracellular domain; also called Human ErbB3 ECD-Fc protein (RnD); not shown: Fc part of the bought fusion
Briefly: competition ELISA (NRG Ligand Blocking): HER3-ECD-Fc on the plate, antibody, then 10 nM NRG-1β, bound NRG detected. On the technique in general: ELISA stands for enzyme-linked immunosorbent assay.

The target in assay [2] is T2, mouse HER3 (mouse, UniProt Q61526 20-1339).
T2 construct: whole, on cells; also called murine HER3
T2 sequence (Q61526 20-1339): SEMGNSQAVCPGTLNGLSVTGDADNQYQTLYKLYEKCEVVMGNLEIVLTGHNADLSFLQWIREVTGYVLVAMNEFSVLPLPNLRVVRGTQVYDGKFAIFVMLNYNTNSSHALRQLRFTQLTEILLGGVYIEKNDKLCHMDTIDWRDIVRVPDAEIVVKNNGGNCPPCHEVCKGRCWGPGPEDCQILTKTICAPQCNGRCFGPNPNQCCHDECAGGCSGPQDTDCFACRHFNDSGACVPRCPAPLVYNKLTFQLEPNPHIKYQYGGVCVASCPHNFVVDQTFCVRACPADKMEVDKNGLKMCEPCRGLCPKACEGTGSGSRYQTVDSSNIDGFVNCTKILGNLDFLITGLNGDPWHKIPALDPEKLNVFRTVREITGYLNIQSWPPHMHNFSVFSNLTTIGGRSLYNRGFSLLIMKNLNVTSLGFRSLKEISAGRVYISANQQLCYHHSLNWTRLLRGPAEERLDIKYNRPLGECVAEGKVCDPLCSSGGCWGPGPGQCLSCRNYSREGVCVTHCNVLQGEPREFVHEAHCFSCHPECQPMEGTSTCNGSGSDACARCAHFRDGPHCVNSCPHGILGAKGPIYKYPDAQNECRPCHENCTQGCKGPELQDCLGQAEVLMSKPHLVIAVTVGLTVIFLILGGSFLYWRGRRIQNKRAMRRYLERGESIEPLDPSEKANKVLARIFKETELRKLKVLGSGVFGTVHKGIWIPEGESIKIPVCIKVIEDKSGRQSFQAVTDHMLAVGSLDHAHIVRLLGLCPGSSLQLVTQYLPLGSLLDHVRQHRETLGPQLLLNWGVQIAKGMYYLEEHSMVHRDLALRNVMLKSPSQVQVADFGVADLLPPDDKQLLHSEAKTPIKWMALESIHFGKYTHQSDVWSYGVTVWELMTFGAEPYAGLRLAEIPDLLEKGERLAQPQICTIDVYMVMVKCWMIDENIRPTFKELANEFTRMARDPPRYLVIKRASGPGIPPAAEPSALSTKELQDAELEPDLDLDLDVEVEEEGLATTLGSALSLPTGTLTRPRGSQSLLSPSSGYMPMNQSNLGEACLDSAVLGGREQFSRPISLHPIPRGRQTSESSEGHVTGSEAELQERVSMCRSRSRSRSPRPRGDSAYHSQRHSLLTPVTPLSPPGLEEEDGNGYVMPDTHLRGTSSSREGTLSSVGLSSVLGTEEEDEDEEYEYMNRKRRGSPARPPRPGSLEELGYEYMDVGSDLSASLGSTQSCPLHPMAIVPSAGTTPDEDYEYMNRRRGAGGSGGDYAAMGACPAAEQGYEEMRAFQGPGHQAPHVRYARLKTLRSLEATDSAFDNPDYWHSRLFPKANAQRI
Briefly: flow cytometry on CHO cells transiently transfected with mouse HER3.

Assay [3] has as its target T1, Recombinant protein HER3-ECD-Fc (RnD …). Briefly: SPR, Biacore T100: antibody captured on an anti-Fc CM5 chip, HER3-ECD-Fc injected as analyte. The procedure:
Among the hybridomas described above, two antibodies, A3 and A4, were further selected for a biochemical and functional characterization. In particular, the following assays have been performed: [0174] Bioacore analysis. Affinity for HER3 and kₒₙ/koff were determined by Surface Plasmon Resonance using a Biacore T100 instrument. A biosensor chip CM5 (GE Healthcare) was covalently bound to an anti-Fc (8000 RU) and then treated with antibodies at different concentrations (<1000 RU). Recombinant protein HER3-ECD-Fc (RnD Systems) in HBS-EP buffer at the analyte concentration 1:1 was injected for 2 minutes at 30 μl/min, followed by a 10 minutes dissociation phase. [0175] Cross-reactivity with mouse HER3 receptor and with other human ErbB receptors. […] After a wash in FACS buffer, an anti-mouse IgG conjugated with Phycoerythrin (PE, Becton Dickinson) was added and cells were analyzed by a FACSCalibur (Becton Dickinson). […] After 2 washes with PBS, 0.05% Tween20, the signal was measured by incubation with a biotinylated goat anti-NRG-1β antibody (RnD Systems) and Streptavidin conjugated with peroxidase and utilizing an HRP substrate (Pierce). Data were acquired with an ELISA reader at 450 nm. […]

Assay [4] concerns the target T3, HER1/EGFR (human, UniProt P00533 25-1210).
T3 construct: whole, on cells
Briefly: flow cytometry on transiently transfected CHO cells. On the technique in general: Flow cytometry measures light scatter and fluorescence of single cells or particles in a stream.

In assay [5] the target is T4, HER2 (human, UniProt P04626 23-1255).
T4 construct: whole, on cells; also called ErbB2
The assay is described as above.

Assay [6] deals with T5, HER4 (human, UniProt Q15303 26-1308).
T5 construct: whole, on cells; also called ErbB4
T5 sequence (Q15303 26-1308): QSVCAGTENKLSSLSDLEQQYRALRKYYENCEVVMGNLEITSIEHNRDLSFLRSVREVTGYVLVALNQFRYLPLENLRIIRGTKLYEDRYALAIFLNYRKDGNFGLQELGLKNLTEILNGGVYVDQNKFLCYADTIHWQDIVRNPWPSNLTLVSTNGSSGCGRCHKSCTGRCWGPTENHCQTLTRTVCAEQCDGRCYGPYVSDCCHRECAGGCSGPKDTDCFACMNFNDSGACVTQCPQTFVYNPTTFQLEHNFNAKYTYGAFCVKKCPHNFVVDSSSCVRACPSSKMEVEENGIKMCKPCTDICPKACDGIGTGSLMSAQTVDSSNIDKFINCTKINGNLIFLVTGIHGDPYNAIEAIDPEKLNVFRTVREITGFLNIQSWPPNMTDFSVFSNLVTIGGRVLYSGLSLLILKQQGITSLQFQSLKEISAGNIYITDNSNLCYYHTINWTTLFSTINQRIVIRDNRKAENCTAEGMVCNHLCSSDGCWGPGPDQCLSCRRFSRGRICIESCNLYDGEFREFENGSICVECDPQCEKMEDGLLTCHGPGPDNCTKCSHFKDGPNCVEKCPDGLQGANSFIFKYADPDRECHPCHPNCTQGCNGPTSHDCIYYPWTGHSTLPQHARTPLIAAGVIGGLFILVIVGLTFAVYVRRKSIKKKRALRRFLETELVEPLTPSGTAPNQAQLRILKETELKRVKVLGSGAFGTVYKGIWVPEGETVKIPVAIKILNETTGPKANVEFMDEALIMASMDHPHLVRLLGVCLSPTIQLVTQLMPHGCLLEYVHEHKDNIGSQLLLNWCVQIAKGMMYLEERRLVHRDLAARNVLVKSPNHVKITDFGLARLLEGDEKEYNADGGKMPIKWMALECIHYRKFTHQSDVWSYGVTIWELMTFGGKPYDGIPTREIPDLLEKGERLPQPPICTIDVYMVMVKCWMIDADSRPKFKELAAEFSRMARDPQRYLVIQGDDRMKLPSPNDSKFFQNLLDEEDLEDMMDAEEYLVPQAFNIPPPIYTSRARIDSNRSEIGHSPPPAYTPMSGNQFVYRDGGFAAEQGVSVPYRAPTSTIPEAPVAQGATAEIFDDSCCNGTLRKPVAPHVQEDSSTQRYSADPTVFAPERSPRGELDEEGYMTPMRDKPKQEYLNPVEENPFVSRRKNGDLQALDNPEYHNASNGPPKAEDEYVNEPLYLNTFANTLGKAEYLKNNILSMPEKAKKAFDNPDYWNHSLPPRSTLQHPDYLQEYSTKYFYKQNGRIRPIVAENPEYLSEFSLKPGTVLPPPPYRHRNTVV
Described as above.

The target of assay [7] is T6, human ErbB3 15mer peptide QCNGHCFGPNPNQCC (human).
T6 construct: One of 158 15mer peptides of human ErbB3 overlapping by 11 residues (Jerini Peptide Technologies), coated on the ELISA plate
T6 peptide: QCNGHCFGPNPNQCC
Briefly: ELISA on plate-coated 15mer peptides, A3 at 1 µg/ml. The procedure:
To identify the epitope recognized by A3 antibody, a human ErbB3 peptide collection consisting of 158 15mer peptides overlapping by 11 residues (Jerini Peptide Technologies, Berlin, Germany) has been utilized. Each peptide was resuspended in DMSO at 40 mg/ml and diluted in sodium carbonate buffer (10 mM, pH 9.6) at 1 μg/ml in 96well plates (Nunc Maxisorp) at a volume of 100 μl/well and incubated over night at 4° C. Human ErbB3 ECD-Fc protein (RnD) and buffer coated wells were used as positive and negative controls of the assay, respectively. The day after, plates were washed with 200 μl PBS 1× pH 7.4 and blocked with PBS 5% BSA for 2 hr at room temperature. After three washes with PBS, 0.05% Tween20 (PBST), plates were incubated for 2 hours at room temperature with A3 antibody diluted at 1 μg/ml in PBST, 1% BSA for 2 hours at room temperature. Plates were then washed three times in PBST and then incubated with 1/5000 diluted goat anti-mouse IgG HRP conjugated (Abcam) for one hour. After three washing in PBST, 100 μl/well 3, 3′, 5, 5′-Tetramethylbenzidine (TMB) Liquid Substrate (Sigma) were added and the reaction stopped 20 minutes later with 50 μl/well Stop Reagent for TMB Substrate (Sigma). OD₄₅₀ was determined at an ELISA reader (Perkin Elmer).

The target of assay [8] is T2, mouse HER3. Briefly: flow cytometry on CHO cells transiently transfected with mouse HER3, antibody at 10 µg/ml.

This is an account of results in patent US20140017259A1 (TAKIS S R L, published 2014).

In general, IC50 refers to the point on the concentration scale where inhibition reaches its midpoint. Usually Kd stands for the constant that tells how readily two partners part at equilibrium.

T1 sequence (P21860 20-643): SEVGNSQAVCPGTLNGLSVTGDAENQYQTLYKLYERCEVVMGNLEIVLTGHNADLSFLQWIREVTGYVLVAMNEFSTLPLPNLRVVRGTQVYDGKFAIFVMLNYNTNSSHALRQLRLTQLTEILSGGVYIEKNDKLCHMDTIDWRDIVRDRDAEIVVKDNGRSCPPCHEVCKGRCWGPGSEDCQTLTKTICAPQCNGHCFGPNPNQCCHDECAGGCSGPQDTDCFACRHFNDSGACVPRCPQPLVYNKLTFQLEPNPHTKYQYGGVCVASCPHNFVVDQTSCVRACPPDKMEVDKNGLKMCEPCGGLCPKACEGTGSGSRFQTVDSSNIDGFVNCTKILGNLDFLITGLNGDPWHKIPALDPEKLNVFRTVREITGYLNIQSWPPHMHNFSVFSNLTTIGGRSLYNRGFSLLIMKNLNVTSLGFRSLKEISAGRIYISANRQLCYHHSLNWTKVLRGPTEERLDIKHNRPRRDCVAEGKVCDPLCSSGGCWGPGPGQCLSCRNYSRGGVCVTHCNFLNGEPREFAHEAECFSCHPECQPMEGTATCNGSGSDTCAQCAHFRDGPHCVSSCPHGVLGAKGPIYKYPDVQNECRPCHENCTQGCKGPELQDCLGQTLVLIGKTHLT

B1: Antibody A4 (antibody, V domains shown)
VH: QVQLQQPGSELVRPGASVKLSCKASGYTFTIFWIHWVKQRPGQGLEWIGNIYPGSGGTNYDEKFKSKATLTVDTFSSTAYMQLSSLTSEDSAVYYCTRWGTGKDYWGQGTTLKVSS
VL: QIVLTQSPAIMSASPGEKVTMTCRARSSVSSSYLHWYQQKPGSSPKLWIYSTSNLALGVPARFSGSGSGTSYSLTISSVEAEDAATYYCQQYDSSPFTFGTGTKLEIKR
notes: Murine monoclonal IgG with a kappa light chain, from a hybridoma; also called murine A4; A4 monoclonal antibody
Regarding B1, the IC50 in assay [1] was 2.8 nM. Further, the binding result in assay [2], in assay [4], in assay [5] and in assay [6] was “no binding (tested: 10 µg/ml)” each time. The Kd in assay [3] came out at 2.4 nM.

B2: Antibody A3 (antibody, V domains shown)
VH: QVTLKESGPGKLQPSQTLSLTCSFSGFSLSTYGMGVGWIRQPLGKGLEWLANIWWNDDKYYNSALKSRLTISKDTSNNQVFLKISSVDTADAATYYCVQIANPYWYFDVWGAGTTVTVSS
VL: DVLMTQTPLSLPVSLGDQASISCRSSQSIVHSYGNTYLEWYLQKPGQSPKLLIYRVSNRFSGVPDRFSGSGSGTDFTLKISRVEAEDLGVYYCFQGSHVPFTFGTGTKLEIKR
notes: Murine monoclonal IgG from a hybridoma of BALB/c mice immunised with HER3 H584F DNA; also called A3 monoclonal antibody
With B2, the binding result in assay [7] is recorded as “binds”; in assay [8] it was “binds”; in assay [4], “no binding (tested: 10 µg/ml)”; in assay [5], “no binding (tested: 10 µg/ml)”; in assay [6] it was “no binding (tested: 10 µg/ml)”. Besides, in assay [1], the IC50 stood at 1.1 nM. In addition, the Kd in assay [3] stood at 7.4 nM.
